Experiments:
Assay in all cases: cell-based or functional assay
[1] = molecular target: T1, Sub.Novo, subtilisin from Bacillus amyloliquefaciens (Bacillus amyloliquefaciens) (UniProt P00782)
T1 sequence (looked up): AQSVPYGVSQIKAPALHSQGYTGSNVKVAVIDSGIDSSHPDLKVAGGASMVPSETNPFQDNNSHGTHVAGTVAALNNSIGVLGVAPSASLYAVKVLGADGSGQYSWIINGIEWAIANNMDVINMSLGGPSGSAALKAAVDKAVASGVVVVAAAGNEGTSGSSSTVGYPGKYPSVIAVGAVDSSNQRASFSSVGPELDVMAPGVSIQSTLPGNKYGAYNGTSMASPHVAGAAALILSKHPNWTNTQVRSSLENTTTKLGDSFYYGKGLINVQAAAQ

[2] = molecular target: protease derived from Bacillus sp. NCIMB 40484 (Bacillus sp. NCIMB 40484)
[3] = molecular target: protease derived from Paecilomyces lilacinus CBS 102449 (Paecilomyces lilacinus CBS 102449)
[4] = molecular target: protease derived from Bacillus alcalophilus NCIMB 10438 (Bacillus alcalophilus NCIMB 10438)
[5] = molecular target: T2, Sub.Novo(Y217L), mutant of subtilisin from Bacillus amyloliquefaciens (Bacillus amyloliquefaciens) (UniProt P00782)
T2 sequence (looked up): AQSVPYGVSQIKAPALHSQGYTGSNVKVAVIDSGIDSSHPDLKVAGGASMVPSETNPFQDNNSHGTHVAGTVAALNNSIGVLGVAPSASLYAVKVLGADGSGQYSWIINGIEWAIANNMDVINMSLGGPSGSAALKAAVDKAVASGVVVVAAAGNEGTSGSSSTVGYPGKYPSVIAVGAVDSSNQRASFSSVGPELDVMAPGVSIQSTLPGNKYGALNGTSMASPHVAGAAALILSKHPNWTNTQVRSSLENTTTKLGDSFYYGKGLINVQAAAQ

[6] = molecular target: protease derived from Aspergillus sp. CBS 102448
[7] = molecular target: T3, SAVINASE, subtilisin derived from Bacillus clausii (previously Bacillus lentus NCIB 10309) (Bacillus clausii (previously Bacillus lentus NCIB 10309)) (UniProt P29600)
T3 sequence (looked up): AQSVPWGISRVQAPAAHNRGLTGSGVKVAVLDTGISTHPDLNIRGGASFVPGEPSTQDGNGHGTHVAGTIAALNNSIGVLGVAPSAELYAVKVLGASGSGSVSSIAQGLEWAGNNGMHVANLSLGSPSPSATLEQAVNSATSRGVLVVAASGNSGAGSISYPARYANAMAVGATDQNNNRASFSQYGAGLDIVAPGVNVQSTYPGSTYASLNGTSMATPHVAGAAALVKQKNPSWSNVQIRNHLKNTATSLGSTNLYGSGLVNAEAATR

[8] = molecular target: protease derived from Acremonium chrysogenum ATCC 48272 (Acremonium chrysogenum ATCC 48272)
Chain of protease derived from Acremonium chrysogenum ATCC 48272 (Acremonium chrysogenum ATCC 48272) (P29118 other isoform, or with tags, fused parts or gaps): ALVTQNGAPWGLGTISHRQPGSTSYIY

[9] = molecular target: protease derived from Fusarium oxysporum IFO 4471 (Fusarium oxysporum IFO 4471)

B1: Streptomyces Subtilisin Inhibitor (SSI) (protein, UniProt P01006 32-144, looked up)
chain: DAPSALYAPSALVLTVGKGVSATTAAPERAVTLTCAPGPSGTHPAAGSACADLAAVGGDLNALTRGEDVMCPMVYDPVLLTVDGVWQGKRVSYERVFSNECEMNAHGSSVFAF
- Residual activity (%) on Suc-AAPF-pNA after incubation with SSI [1]: 0.1%
- Residual activity (%) on Suc-AAPF-pNA after incubation with SSI [2]: 4.3%
- Residual activity (%) on Suc-AAPF-pNA after incubation with SSI [3]: 0.1%
- Residual activity (%) on Suc-AAPF-pNA after incubation with SSI [4]: 0%
- Residual activity (%) on Suc-AAPF-pNA after incubation with SSI [5]: 0%
- Residual activity (%) on Suc-AAPF-pNA after incubation with SSI [6]: 0.1%
- Residual activity (%) on Suc-AAPF-pNA after incubation with SSI [7]: 0%
- Residual activity (%) on Suc-AAPF-pNA after incubation with SSI [8]: 0.1%
- Residual activity (%) on Suc-AAPF-pNA after incubation with SSI [9]: 0.1%
